Data from the supplement of paper PMC10065799, “High-throughput profiling of sequence recognition by tyrosine kinases and SH2 domains using bacterial peptide display” (eLife, 2023).

What follows are sequences tested against Hck (UniProt P08631) (assay: phosphorylation enrichment, bacterial display (enrichment ratio); higher = better substrate or ligand; peptides without Tyr show the background).
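Note: 11-residue human phosphosite peptides and single-mutation variants displayed on the E. coli surface, counted by deep sequencing, each peptide's frequency after selection divided by its frequency in the unselected input library; frequency after pTyr selection over input frequency; kinase dosed for 20-30% of maximal phosphorylation in three min.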

Hck, sequence (P08631 whole entry, looked up): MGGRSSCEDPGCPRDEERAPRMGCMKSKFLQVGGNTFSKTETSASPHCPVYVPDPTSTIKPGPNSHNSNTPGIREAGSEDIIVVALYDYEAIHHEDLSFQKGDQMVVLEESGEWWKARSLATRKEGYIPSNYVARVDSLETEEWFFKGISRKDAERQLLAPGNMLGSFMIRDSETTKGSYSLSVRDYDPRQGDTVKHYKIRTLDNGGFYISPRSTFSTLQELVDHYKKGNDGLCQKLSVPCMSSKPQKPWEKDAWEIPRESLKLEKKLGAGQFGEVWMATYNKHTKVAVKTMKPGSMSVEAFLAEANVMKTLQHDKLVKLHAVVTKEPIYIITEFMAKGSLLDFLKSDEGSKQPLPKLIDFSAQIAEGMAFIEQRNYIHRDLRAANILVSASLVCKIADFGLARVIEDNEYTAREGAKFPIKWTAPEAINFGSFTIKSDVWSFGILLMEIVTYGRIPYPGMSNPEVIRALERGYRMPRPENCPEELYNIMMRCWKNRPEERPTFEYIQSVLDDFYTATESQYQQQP

Sequence	phosphorylation enrichment
RLSVDYGKKSK [TUBA3E_Y161_S162G]	0.511
TKAEKYVNKPK [PLCG1_Y991_A995P]	0.559
EVVGRYSVHNA [MLH1_Y183]	0.488
CRIELYRVVES [IGFBP1_Y181]	0.574
TTTQAYRVDER [PRKN_Y391]	0.446
IKKLIYVFLVI [JAGN1_Y42_H44Y_YF]	0.393
HKLSSYEFDFE [BTK_Y40_Y39S_YF]	0.565
GCKNRYDEDKP [THAP1_Y14_K16E]	0.596
NREGVYTVFAP [TGFBI_Y537]	10
PVPKTYDMLKA [PKP2_Y108]	1.46
AFGEVYEGQVS [ALK_Y1131]	0.937
VITDYYVDMKF [MPP4_Y567]	0.929
ETKKQYNSFTY [TMED3_Y85_D86N]	0.423
SARSAYQEAID [SFN_Y151_M155I]	0.523
EPTPSYEVGQR [TSC2_Y1788_G1787S]	0.486
RRAKGYPIFLF [ITGB2_Y125_D128Y_YF]	0.548
SPYAVYRFFTF [RPGRIP1_Y826]	1.21

Sequence	phosphorylation enrichment
SVVMPYEPPEV [TP53_Y220_V218M]	0.481
LNECHYGALIG [BPGM_Y92_R90C]	2.93
PPVVNYEQDAR [FER_Y402_E404Q]	0.628
IHFAIYFLKFS [ARMC9_Y107_L108F_YF]	0.561
GLNKDYRMVVN [HINT1_Y94_G93D]	0.437
NPEACYQRLKK [TK2_Y190_T188A]	0.802
LDYNEYFRNLN [HPRT1_Y198_D201N]	0.69
WTAHSYRMGST [ARHGEF7_Y785]	0.432
AAFNKYDQERF [CDC73_Y293_R292K_YF]	0.375
LLANAYIYDVQ [L1CAM_Y418_V421D]	4.13
CSPLLYKVIMS [OR8D4_Y132_R133K]	0.566
GCKNRYDKGKP [THAP1_Y14_D17G]	0.496
MEVEQYIFVKC [CYBB_Y324_G322E]	0.71
KTVQDYLEKFY [MMP8_Y36]	0.539
CRWKRYQCSHD [GDPD5_Y30_R32C]	0.529
AQVDTYCRHNF [HLA-DRB1_Y107_A103Q_YF]	0.446

Each sequence was assayed against FGFR3 (UniProt P22607) in the same assay as above.
FGFR3, sequence (P22607 whole entry, looked up): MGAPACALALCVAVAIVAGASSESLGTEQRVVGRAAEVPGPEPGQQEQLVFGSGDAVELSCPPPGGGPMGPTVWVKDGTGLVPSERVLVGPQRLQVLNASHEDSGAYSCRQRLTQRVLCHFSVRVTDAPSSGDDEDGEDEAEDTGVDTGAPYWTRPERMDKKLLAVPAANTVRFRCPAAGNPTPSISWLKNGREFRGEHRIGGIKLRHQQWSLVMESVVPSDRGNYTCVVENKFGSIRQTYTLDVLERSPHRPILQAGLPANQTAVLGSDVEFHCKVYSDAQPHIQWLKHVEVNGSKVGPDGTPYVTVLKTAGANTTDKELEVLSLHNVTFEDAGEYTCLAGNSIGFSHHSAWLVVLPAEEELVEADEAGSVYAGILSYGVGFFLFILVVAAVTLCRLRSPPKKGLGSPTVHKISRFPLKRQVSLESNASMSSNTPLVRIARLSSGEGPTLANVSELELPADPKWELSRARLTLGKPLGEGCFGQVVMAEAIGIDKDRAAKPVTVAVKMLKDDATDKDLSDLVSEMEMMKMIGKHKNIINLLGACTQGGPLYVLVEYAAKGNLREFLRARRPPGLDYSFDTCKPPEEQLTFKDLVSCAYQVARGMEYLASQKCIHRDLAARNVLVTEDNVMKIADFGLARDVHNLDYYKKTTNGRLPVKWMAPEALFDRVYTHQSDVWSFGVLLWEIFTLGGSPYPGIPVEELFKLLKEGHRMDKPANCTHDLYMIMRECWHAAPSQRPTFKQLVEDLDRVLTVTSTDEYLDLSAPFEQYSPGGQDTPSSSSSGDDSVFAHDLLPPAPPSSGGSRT

Sequence	phosphorylation enrichment
RLSVDYGKKSK [TUBA3E_Y161_S162G]	0.642
TKAEKYVNKPK [PLCG1_Y991_A995P]	0.534
EVVGRYSVHNA [MLH1_Y183]	0.513
CRIELYRVVES [IGFBP1_Y181]	0.887
TTTQAYRVDER [PRKN_Y391]	0.512
IKKLIYVFLVI [JAGN1_Y42_H44Y_YF]	0.797
HKLSSYEFDFE [BTK_Y40_Y39S_YF]	0.844
GCKNRYDEDKP [THAP1_Y14_K16E]	0.722
NREGVYTVFAP [TGFBI_Y537]	1.07
PVPKTYDMLKA [PKP2_Y108]	0.707
AFGEVYEGQVS [ALK_Y1131]	0.667
VITDYYVDMKF [MPP4_Y567]	5.31
ETKKQYNSFTY [TMED3_Y85_D86N]	0.455
SARSAYQEAID [SFN_Y151_M155I]	0.685
EPTPSYEVGQR [TSC2_Y1788_G1787S]	0.581
RRAKGYPIFLF [ITGB2_Y125_D128Y_YF]	0.63
SPYAVYRFFTF [RPGRIP1_Y826]	0.783

Sequence	phosphorylation enrichment
SVVMPYEPPEV [TP53_Y220_V218M]	0.674
LNECHYGALIG [BPGM_Y92_R90C]	0.886
PPVVNYEQDAR [FER_Y402_E404Q]	1.29
IHFAIYFLKFS [ARMC9_Y107_L108F_YF]	0.674
GLNKDYRMVVN [HINT1_Y94_G93D]	0.504
NPEACYQRLKK [TK2_Y190_T188A]	0.471
LDYNEYFRNLN [HPRT1_Y198_D201N]	0.844
WTAHSYRMGST [ARHGEF7_Y785]	0.47
AAFNKYDQERF [CDC73_Y293_R292K_YF]	0.531
LLANAYIYDVQ [L1CAM_Y418_V421D]	0.616
CSPLLYKVIMS [OR8D4_Y132_R133K]	0.819
GCKNRYDKGKP [THAP1_Y14_D17G]	1.04
MEVEQYIFVKC [CYBB_Y324_G322E]	1.99
KTVQDYLEKFY [MMP8_Y36]	0.707
CRWKRYQCSHD [GDPD5_Y30_R32C]	0.562
AQVDTYCRHNF [HLA-DRB1_Y107_A103Q_YF]	0.472

What follows are sequences tested against FGFR1 (UniProt P11362) in the same assay as above.
FGFR1, sequence (P11362 whole entry, looked up): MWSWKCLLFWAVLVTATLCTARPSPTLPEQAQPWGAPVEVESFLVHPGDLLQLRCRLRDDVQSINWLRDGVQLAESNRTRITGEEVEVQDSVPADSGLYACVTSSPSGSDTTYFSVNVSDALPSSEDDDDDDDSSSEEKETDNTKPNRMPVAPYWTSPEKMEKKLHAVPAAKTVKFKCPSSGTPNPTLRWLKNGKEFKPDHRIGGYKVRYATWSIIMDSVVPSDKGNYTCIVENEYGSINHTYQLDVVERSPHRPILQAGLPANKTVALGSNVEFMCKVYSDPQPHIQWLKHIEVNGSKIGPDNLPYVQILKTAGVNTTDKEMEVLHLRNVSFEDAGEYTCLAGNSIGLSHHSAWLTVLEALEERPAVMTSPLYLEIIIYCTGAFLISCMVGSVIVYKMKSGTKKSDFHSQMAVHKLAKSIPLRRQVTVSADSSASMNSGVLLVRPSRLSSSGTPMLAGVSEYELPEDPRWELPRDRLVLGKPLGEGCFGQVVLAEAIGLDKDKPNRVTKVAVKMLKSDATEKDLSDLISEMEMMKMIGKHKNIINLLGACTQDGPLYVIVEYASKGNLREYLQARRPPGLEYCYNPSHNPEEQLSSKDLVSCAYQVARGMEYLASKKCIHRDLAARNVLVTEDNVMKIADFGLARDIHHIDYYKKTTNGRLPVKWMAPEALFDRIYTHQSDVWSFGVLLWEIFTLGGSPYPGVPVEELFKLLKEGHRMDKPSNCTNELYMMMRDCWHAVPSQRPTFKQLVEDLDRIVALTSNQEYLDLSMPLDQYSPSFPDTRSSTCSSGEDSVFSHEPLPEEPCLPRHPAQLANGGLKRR

Sequence	phosphorylation enrichment
RLSVDYGKKSK [TUBA3E_Y161_S162G]	0.534
TKAEKYVNKPK [PLCG1_Y991_A995P]	0.594
EVVGRYSVHNA [MLH1_Y183]	0.457
CRIELYRVVES [IGFBP1_Y181]	0.545
TTTQAYRVDER [PRKN_Y391]	0.446
IKKLIYVFLVI [JAGN1_Y42_H44Y_YF]	0.716
HKLSSYEFDFE [BTK_Y40_Y39S_YF]	0.889
GCKNRYDEDKP [THAP1_Y14_K16E]	0.606
NREGVYTVFAP [TGFBI_Y537]	0.885
PVPKTYDMLKA [PKP2_Y108]	0.766
AFGEVYEGQVS [ALK_Y1131]	0.695
VITDYYVDMKF [MPP4_Y567]	7.13
ETKKQYNSFTY [TMED3_Y85_D86N]	0.496
SARSAYQEAID [SFN_Y151_M155I]	0.573
EPTPSYEVGQR [TSC2_Y1788_G1787S]	0.462
RRAKGYPIFLF [ITGB2_Y125_D128Y_YF]	0.561
SPYAVYRFFTF [RPGRIP1_Y826]	0.784

Sequence	phosphorylation enrichment
SVVMPYEPPEV [TP53_Y220_V218M]	0.559
LNECHYGALIG [BPGM_Y92_R90C]	0.701
PPVVNYEQDAR [FER_Y402_E404Q]	0.69
IHFAIYFLKFS [ARMC9_Y107_L108F_YF]	0.441
GLNKDYRMVVN [HINT1_Y94_G93D]	0.51
NPEACYQRLKK [TK2_Y190_T188A]	0.381
LDYNEYFRNLN [HPRT1_Y198_D201N]	0.596
WTAHSYRMGST [ARHGEF7_Y785]	0.496
AAFNKYDQERF [CDC73_Y293_R292K_YF]	0.412
LLANAYIYDVQ [L1CAM_Y418_V421D]	0.391
CSPLLYKVIMS [OR8D4_Y132_R133K]	0.518
GCKNRYDKGKP [THAP1_Y14_D17G]	0.387
MEVEQYIFVKC [CYBB_Y324_G322E]	1.98
KTVQDYLEKFY [MMP8_Y36]	0.627
CRWKRYQCSHD [GDPD5_Y30_R32C]	0.488
AQVDTYCRHNF [HLA-DRB1_Y107_A103Q_YF]	0.668

What follows are sequences tested against Jak2 (UniProt O60674) in the same assay as above.
Jak2, sequence (O60674 whole entry, looked up): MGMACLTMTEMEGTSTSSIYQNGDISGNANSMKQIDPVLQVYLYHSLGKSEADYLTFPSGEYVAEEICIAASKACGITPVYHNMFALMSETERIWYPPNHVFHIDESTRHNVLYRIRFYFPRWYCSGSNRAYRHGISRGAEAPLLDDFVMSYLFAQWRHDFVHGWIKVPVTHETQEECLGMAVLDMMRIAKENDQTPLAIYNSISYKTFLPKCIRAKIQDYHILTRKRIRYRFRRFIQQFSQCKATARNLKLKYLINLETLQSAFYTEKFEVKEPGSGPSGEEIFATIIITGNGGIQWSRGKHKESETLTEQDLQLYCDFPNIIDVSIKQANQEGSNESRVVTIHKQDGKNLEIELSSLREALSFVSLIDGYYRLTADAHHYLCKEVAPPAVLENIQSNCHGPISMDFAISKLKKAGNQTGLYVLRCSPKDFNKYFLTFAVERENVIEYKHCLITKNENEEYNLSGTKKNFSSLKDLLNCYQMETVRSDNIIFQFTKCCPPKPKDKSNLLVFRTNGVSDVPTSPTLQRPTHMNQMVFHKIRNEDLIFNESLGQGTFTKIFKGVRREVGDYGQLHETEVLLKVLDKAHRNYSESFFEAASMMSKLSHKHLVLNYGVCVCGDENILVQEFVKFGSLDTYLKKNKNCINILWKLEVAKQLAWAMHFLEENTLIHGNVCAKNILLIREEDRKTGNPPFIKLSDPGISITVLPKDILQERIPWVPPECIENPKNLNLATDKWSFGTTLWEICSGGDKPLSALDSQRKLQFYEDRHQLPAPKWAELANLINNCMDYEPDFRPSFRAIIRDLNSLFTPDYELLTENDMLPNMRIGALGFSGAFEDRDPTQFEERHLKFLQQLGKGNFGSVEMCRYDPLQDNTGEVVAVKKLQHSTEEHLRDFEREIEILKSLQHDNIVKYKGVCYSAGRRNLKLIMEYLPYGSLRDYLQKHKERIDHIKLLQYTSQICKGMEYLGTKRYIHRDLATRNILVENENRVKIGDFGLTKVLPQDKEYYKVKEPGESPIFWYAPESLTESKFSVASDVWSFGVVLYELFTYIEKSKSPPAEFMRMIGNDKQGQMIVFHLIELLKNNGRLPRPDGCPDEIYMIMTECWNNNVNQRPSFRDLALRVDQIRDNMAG

Sequence	phosphorylation enrichment
RLSVDYGKKSK [TUBA3E_Y161_S162G]	0.922
TKAEKYVNKPK [PLCG1_Y991_A995P]	0.596
EVVGRYSVHNA [MLH1_Y183]	0.698
CRIELYRVVES [IGFBP1_Y181]	1.11
TTTQAYRVDER [PRKN_Y391]	0.57
IKKLIYVFLVI [JAGN1_Y42_H44Y_YF]	0.736
HKLSSYEFDFE [BTK_Y40_Y39S_YF]	2.13
GCKNRYDEDKP [THAP1_Y14_K16E]	0.617
NREGVYTVFAP [TGFBI_Y537]	0.862
PVPKTYDMLKA [PKP2_Y108]	1.92
AFGEVYEGQVS [ALK_Y1131]	0.846
VITDYYVDMKF [MPP4_Y567]	2.25
ETKKQYNSFTY [TMED3_Y85_D86N]	0.54
SARSAYQEAID [SFN_Y151_M155I]	0.875
EPTPSYEVGQR [TSC2_Y1788_G1787S]	0.686
RRAKGYPIFLF [ITGB2_Y125_D128Y_YF]	1.12
SPYAVYRFFTF [RPGRIP1_Y826]	1.12

Sequence	phosphorylation enrichment
SVVMPYEPPEV [TP53_Y220_V218M]	0.897
LNECHYGALIG [BPGM_Y92_R90C]	0.885
PPVVNYEQDAR [FER_Y402_E404Q]	1.49
IHFAIYFLKFS [ARMC9_Y107_L108F_YF]	0.636
GLNKDYRMVVN [HINT1_Y94_G93D]	0.566
NPEACYQRLKK [TK2_Y190_T188A]	0.892
LDYNEYFRNLN [HPRT1_Y198_D201N]	1.79
WTAHSYRMGST [ARHGEF7_Y785]	0.432
AAFNKYDQERF [CDC73_Y293_R292K_YF]	0.599
LLANAYIYDVQ [L1CAM_Y418_V421D]	1.22
CSPLLYKVIMS [OR8D4_Y132_R133K]	0.989
GCKNRYDKGKP [THAP1_Y14_D17G]	0.876
MEVEQYIFVKC [CYBB_Y324_G322E]	1.53
KTVQDYLEKFY [MMP8_Y36]	1.21
CRWKRYQCSHD [GDPD5_Y30_R32C]	0.612
AQVDTYCRHNF [HLA-DRB1_Y107_A103Q_YF]	0.673
